Data from the supplement of paper PMC10567573.

B1: FAM189A2 (parent)
chain: PRCDLVDLGEGKICFCCEEFQPAK
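Further: lentivirally expressed fusions sorted by FACS into six bins by GFP to DsRed ratio, PSI derived from sequencing read proportions per bin multiplied by bin number.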

Variants of: B1
Assay: protein stability index of a GFP-peptide fusion (GPS, HEK-293T) (PSI 1-6); higher = more stable
Details: c terminus: a fixed tail appended
Variant PRCDLVDLGEGKICFCCEEFQPAM [K24M] has a protein stability index of 2.32.
PRCDLVDLGEGKICFCCEEFQPAL [K24L] gave a protein stability index of 3.26.
PRCDLVDLGEGKICFCCEEFQPAG [K24G] gave a protein stability index of 3.1.
PRCDLVDLGEGKICFCCEEFQPAF [K24F] showed a protein stability index of 2.23.
Work on PRCDLVDLGEGKICFCCEEFQPAH [K24H] yielded a protein stability index of 2.52.
Work on PRCDLVDLGEGKICFCCEEFQPAA [K24A] yielded a protein stability index of 2.66.
Work on PRCDLVDLGEGKICFCCEEFQPAI [K24I] yielded a protein stability index of 2.48.
For PRCDLVDLGEGKICFCCEEFQPAE [K24E], the protein stability index was 3.81.
With PRCDLVDLGEGKICFCCEEFQPAC [K24C] the protein stability index was 3.39.
In the case of PRCDLVDLGEGKICFCCEEFQPAD [K24D], the protein stability index is reported as 3.18.
PRCDLVDLGEGKICFRCEEFQPAK [C16R] gave a protein stability index of 3.13.
Work on PRCDLVDLGEGKICFICEEFQPAK [C16I] yielded a protein stability index of 2.09.
In the case of PRCDLVDLGEGKICFYCEEFQPAK [C16Y], the protein stability index is reported as 2.22.
In the case of PRCDLVDLGEGKICFLCEEFQPAK [C16L], the protein stability index is reported as 2.71.
PRCDLVDLGEGKICFTCEEFQPAK [C16T] gave a protein stability index of 3.05.
Variant PRCDLVDLGEGKICFMCEEFQPAK [C16M] has a protein stability index of 3.07.
For PRCDLVDLGEGKICFGCEEFQPAK [C16G], the protein stability index was 3.44.
Variant PRCDLVDLGEGKICFNCEEFQPAK [C16N] has a protein stability index of 3.93.
Variant PRCDLVDLGEGKICFDCEEFQPAK [C16D] has a protein stability index of 3.88.
For PRCDLVDLGEGKICFECEEFQPAK [C16E], the protein stability index was 3.64.
PRCDLVDLGEGKICFKCEEFQPAK [C16K] showed a protein stability index of 3.76.
For PRCDLVDLGEGKICFQCEEFQPAK [C16Q], the protein stability index was 3.89.
Work on PRCDLVDLGEGKICFHCEEFQPAK [C16H] yielded a protein stability index of 4.23.
Variant PRCDLVDLGEGKICFACEEFQPAK [C16A] has a protein stability index of 3.45.
With PRCDLVDLGEGKICFPCEEFQPAK [C16P] the protein stability index was 4.24.
In the case of PRCDLVDLGEGKICFSCEEFQPAK [C16S], the protein stability index is reported as 3.28.
Variant PRCDLVDLGEGKICFVCEEFQPAK [C16V] has a protein stability index of 2.85.
Variant PRCDLVDLGEGKICFFCEEFQPAK [C16F] has a protein stability index of 2.66.
With PRCDLVDLGEGKICFWCEEFQPAK [C16W] the protein stability index was 2.1.
Work on PRCDLVDLGEGKICFCCEEFQYAK [P22Y] yielded a protein stability index of 3.06.
With PRCDLVDLGEGKICFCCEEFQQAK [P22Q] the protein stability index was 3.51.
With PRCDLVDLGEGKICFCCEEFQWAK [P22W] the protein stability index was 3.08.
PRCDLVDLGEGKICFCCEEFQMAK [P22M] showed a protein stability index of 3.07.
With PRCDLVDLGEGKICFCCEEFQDAK [P22D] the protein stability index was 4.31.
Work on PRCDLVDLGEGKICFCCEEFQGAK [P22G] yielded a protein stability index of 3.86.
PRCDLVDLGEGKICFCCEEFQCAK [P22C] showed a protein stability index of 3.51.
For PRCDLVDLGEGKICFCCEEFQTAK [P22T], the protein stability index was 3.23.
In the case of PRCDLVDLGEGKICFCCEEFQFAK [P22F], the protein stability index is reported as 3.12.
PRCDLVDLGEGKICFCCEEFQAAK [P22A] gave a protein stability index of 3.31.
For PRCDLVDLGEGKICFCCEEFQRAK [P22R], the protein stability index was 2.51.
Work on PRCDLVDLGEGKICFCCEEFQNAK [P22N] yielded a protein stability index of 3.28.
In the case of PRCDLVDLGEGKICFCCEEFQIAK [P22I], the protein stability index is reported as 2.75.
For PRCDLVDLGEGKICFCCEEFQLAK [P22L], the protein stability index was 2.74.
With PRCDLVDLGEGKICFCCEEFQHAK [P22H] the protein stability index was 3.13.
In the case of PRCDLVDLGEGKICFCCEEFQEAK [P22E], the protein stability index is reported as 3.49.
PRCDLVDLGEGKICFCCEEFQVAK [P22V] gave a protein stability index of 2.69.
In the case of PRCDLVDLGEGKICFCCEEFQKAK [P22K], the protein stability index is reported as 3.42.
With PRCDLVDLGEGKICWCCEEFQPAK [F15W] the protein stability index was 3.04.
PRCDLVDLGEGKICKCCEEFQPAK [F15K] showed a protein stability index of 4.07.
In the case of PRCDLVDLGEGKICACCEEFQPAK [F15A], the protein stability index is reported as 3.94.
PRCDLVDLGEGKICRCCEEFQPAK [F15R] gave a protein stability index of 3.33.
With PRCDLVDLGEGKICQCCEEFQPAK [F15Q] the protein stability index was 4.13.
With PRCDLVDLGEGKICPCCEEFQPAK [F15P] the protein stability index was 3.55.
PRCDLVDLGEGKICYCCEEFQPAK [F15Y] gave a protein stability index of 2.81.
With PRCDLVDLGEGKICDCCEEFQPAK [F15D] the protein stability index was 4.74.
In the case of PRCDLVDLGEGKICCCCEEFQPAK [F15C], the protein stability index is reported as 3.86.
With PRCDLVDLGEGKICHCCEEFQPAK [F15H] the protein stability index was 3.77.
For PRCDLVDLGEGKICGCCEEFQPAK [F15G], the protein stability index was 3.79.
Variant PRCDLVDLGEGKICSCCEEFQPAK [F15S] has a protein stability index of 4.47.
PRCDLVDLGEGKICMCCEEFQPAK [F15M] showed a protein stability index of 2.8.
With PRCDLVDLGEGKICNCCEEFQPAK [F15N] the protein stability index was 4.66.
Variant PRCDLVDLGEGKICVCCEEFQPAK [F15V] has a protein stability index of 3.43.
PRCDLVDLGEGKICLCCEEFQPAK [F15L] gave a protein stability index of 3.39.
For PRCDLVDLGEGKICICCEEFQPAK [F15I], the protein stability index was 2.38.
PRCDLVDLGEGKICTCCEEFQPAK [F15T] showed a protein stability index of 4.07.
With PRCDLVDLGEGKICECCEEFQPAK [F15E] the protein stability index was 4.19.
For PRCDLVDLGEGKICFCCEEFWPAK [Q21W], the protein stability index was 2.48.
With PRCDLVDLGEGKICFCCEEFVPAK [Q21V] the protein stability index was 2.66.
In the case of PRCDLVDLGEGKICFCCEEFFPAK [Q21F], the protein stability index is reported as 2.24.
PRCDLVDLGEGKICFCCEEFAPAK [Q21A] gave a protein stability index of 3.44.
PRCDLVDLGEGKICFCCEEFCPAK [Q21C] showed a protein stability index of 4.17.
PRCDLVDLGEGKICFCCEEFGPAK [Q21G] showed a protein stability index of 3.07.
PRCDLVDLGEGKICFCCEEFPPAK [Q21P] showed a protein stability index of 2.86.
PRCDLVDLGEGKICFCCEEFHPAK [Q21H] gave a protein stability index of 3.1.
With PRCDLVDLGEGKICFCCEEFTPAK [Q21T] the protein stability index was 3.55.
With PRCDLVDLGEGKICFCCEEFYPAK [Q21Y] the protein stability index was 2.33.
In the case of PRCDLVDLGEGKICFCCEEFRPAK [Q21R], the protein stability index is reported as 2.44.
Variant PRCDLVDLGEGKICFCCEEFMPAK [Q21M] has a protein stability index of 2.24.
Variant PRCDLVDLGEGKICFCCEEFEPAK [Q21E] has a protein stability index of 3.87.
For PRCDLVDLGEGKICFCCEEFDPAK [Q21D], the protein stability index was 3.61.
With PRCDLVDLGEGKICFCCEEFNPAK [Q21N] the protein stability index was 3.14.
PRCDLVDLGEGKICFCCEEFKPAK [Q21K] showed a protein stability index of 2.79.
Variant PRCDLVDLGEGKICFCCEEFIPAK [Q21I] has a protein stability index of 2.68.
Work on PRCDLVDLGEGKICFCCEEFSPAK [Q21S] yielded a protein stability index of 2.65.
Work on PRCDLVDLGEGKICFCCEEFLPAK [Q21L] yielded a protein stability index of 2.65.
In the case of PRCDLVDLGEGKICFCCDEFQPAK [E18D], the protein stability index is reported as 2.56.
In the case of PRCDLVDLGEGKICFCCYEFQPAK [E18Y], the protein stability index is reported as 2.07.
Work on PRCDLVDLGEGKICFCCNEFQPAK [E18N] yielded a protein stability index of 2.78.
In the case of PRCDLVDLGEGKICFCCHEFQPAK [E18H], the protein stability index is reported as 2.85.
In the case of PRCDLVDLGEGKICFCCCEFQPAK [E18C], the protein stability index is reported as 2.62.
For PRCDLVDLGEGKICFCCWEFQPAK [E18W], the protein stability index was 2.01.
PRCDLVDLGEGKICFCCMEFQPAK [E18M] showed a protein stability index of 2.07.
PRCDLVDLGEGKICFCCPEFQPAK [E18P] gave a protein stability index of 2.98.
PRCDLVDLGEGKICFCCQEFQPAK [E18Q] gave a protein stability index of 2.64.
